Reference: IntAct's records for PubMed 17937919

How the values were obtained:
eed_mouse Eed = eed_mouse Eed (UniProt Q921E6)
eed_mouse Eed, sequence (Q921E6 whole entry, looked up): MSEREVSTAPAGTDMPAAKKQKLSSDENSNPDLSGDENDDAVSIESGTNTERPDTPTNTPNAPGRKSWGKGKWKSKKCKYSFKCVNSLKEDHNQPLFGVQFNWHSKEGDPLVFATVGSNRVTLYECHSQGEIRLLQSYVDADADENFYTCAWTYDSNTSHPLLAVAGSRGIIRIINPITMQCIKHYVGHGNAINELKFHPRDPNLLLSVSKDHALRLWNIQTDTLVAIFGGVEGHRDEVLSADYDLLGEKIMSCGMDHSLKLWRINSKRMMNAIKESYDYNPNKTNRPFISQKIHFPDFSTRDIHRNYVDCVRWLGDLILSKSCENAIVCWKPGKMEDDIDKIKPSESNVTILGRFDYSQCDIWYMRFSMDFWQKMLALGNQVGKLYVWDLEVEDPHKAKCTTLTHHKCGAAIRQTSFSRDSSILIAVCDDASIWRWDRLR

Polycomb protein EED (Mus musculus), Q921E6 L246E, sequence (Q921E6 whole entry L246E): as the sequence (Q921E6 whole entry, looked up) above, with L246E counted along it
Ezh2, Q61188-1, sequence (Q61188 whole entry): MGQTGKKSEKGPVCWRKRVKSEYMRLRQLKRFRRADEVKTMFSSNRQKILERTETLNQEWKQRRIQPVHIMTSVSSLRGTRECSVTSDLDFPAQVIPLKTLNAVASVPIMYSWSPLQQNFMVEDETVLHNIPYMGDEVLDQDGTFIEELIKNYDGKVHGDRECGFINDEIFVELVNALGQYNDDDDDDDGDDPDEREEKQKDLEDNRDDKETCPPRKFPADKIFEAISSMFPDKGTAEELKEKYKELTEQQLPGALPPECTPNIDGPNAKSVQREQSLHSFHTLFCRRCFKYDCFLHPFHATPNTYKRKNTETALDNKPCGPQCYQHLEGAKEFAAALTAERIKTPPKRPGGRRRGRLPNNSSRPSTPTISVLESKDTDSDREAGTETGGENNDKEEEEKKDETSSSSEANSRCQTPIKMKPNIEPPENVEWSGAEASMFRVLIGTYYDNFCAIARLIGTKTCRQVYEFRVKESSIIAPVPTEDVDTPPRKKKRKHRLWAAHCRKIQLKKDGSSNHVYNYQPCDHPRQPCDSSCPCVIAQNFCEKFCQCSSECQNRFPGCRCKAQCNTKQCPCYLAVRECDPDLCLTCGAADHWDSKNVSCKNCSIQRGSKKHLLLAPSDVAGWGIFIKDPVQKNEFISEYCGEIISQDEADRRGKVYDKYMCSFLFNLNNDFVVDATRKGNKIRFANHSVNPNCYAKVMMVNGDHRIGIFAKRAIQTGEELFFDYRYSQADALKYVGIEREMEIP

Substance | effect of a mutation on the interaction (eed_mouse Eed) | effect of a mutation on the interaction (Ezh2, Q61188-1)
Histone-lysine N-methyltransferase EZH2 (Mus musculus), Q61188-1 P67D | disrupting interaction | –
Histone-lysine N-methyltransferase EZH2 (Mus musculus), Q61188-1 I49E | disrupting interaction | –
Histone-lysine N-methyltransferase EZH2 (Mus musculus), Q61188-1 F42D | disrupting interaction | –

The next lines start with the values.

effect of a mutation on the interaction (eed_mouse Eed) | effect of a mutation on the interaction (Ezh2, Q61188-1) | Substance
disrupting interaction | – | Histone-lysine N-methyltransferase EZH2 (Mus musculus), Q61188-1 N45A
disrupting interaction | – | Histone-lysine N-methyltransferase EZH2 (Mus musculus), Q61188-1 L56E
– | disrupting interaction | Polycomb protein EED (Mus musculus), Q921E6 L246E
